In patent publication US9937235B2, “Lipidated peptides as anti-obesity agents” (USTAV ORGANICKE CHEMIE A BIOCHEMIE AKADEMIE VED CR, V.V.I, priority 2012, dated 2018):
Where no end group is shown, it is not given here. [ ]: non-standard residue; d: D form. The star is where a group is joined. Myristoyl = CCCCCCCCCCCCCC(=O)*; Lauroyl = CCCCCCCCCCCC(=O)*; Decanoyl = CCCCCCCCCC(=O)*; NMeA = CN[C@@H](C)C(=O)O; Nle = CCCC[C@H](N)C(=O)O; Octanoyl = CCCCCCCC(=O)*

T1: human PrRP receptor, GPR10, transfected in CHO cells (human, UniProt P49683 1-370)
T1 construct: whole, on cells; also called human GPR10 receptor; the human receptor GPR10 in CHO cells
T1 sequence (looked up): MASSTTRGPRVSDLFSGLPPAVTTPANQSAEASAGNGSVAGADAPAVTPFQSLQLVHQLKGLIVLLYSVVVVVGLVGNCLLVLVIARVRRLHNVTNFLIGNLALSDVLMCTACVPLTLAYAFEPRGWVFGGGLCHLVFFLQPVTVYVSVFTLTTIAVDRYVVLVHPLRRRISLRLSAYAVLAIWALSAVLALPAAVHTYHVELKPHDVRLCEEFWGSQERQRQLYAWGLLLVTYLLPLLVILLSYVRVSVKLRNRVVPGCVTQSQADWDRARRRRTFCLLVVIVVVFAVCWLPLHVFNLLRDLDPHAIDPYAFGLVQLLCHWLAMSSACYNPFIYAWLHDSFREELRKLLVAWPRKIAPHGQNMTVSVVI

T2: rat PrRP receptor in RC-4B/C cells (rat, UniProt Q64121 1-370)
T2 construct: whole, on cells; also called the rat receptor; GPR10
T2 sequence (looked up): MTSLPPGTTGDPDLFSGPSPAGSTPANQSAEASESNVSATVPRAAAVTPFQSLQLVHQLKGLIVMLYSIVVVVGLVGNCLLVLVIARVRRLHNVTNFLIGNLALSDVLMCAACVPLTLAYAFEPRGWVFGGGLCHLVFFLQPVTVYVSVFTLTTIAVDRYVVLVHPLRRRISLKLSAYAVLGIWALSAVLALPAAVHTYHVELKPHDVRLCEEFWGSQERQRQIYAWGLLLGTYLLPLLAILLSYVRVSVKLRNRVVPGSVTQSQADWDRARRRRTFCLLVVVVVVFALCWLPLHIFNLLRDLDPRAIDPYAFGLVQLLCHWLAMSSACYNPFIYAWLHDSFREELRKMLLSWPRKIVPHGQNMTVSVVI

B1: analog no. 40 (peptide)
peptide: TPDINPAWY[NMeA]SRGIRPVGRF-NH2
modifications: N-terminus assumed
SMILES: CC[C@H](C)[C@H](NC(=O)CNC(=O)[C@H](CCCNC(=N)N)NC(=O)[C@H](CO)NC(=O)[C@H](C)N(C)C(=O)[C@H](Cc1ccc(O)cc1)NC(=O)[C@H](Cc1c[nH]c2ccccc12)NC(=O)[C@H](C)NC(=O)[C@@H]1CCCN1C(=O)[C@H](CC(N)=O)NC(=O)[C@@H](NC(=O)[C@H](CC(=O)O)NC(=O)[C@@H]1CCCN1C(=O)[C@@H](N)[C@@H](C)O)[C@@H](C)CC)C(=O)N[C@@H](CCCNC(=N)N)C(=O)N1CCC[C@H]1C(=O)N[C@H](C(=O)NCC(=O)N[C@@H](CCCNC(=N)N)C(=O)N[C@@H](Cc1ccccc1)C(N)=O)C(C)C
B2: analog no. 44 (peptide)
peptide: TPDINPAWYASRPFRPVGRF-NH2
B3: analog no. 45 (peptide)
peptide: Myristoyl-TPDINPAWYASRPFRPVGRF-NH2
SMILES: CCCCCCCCCCCCCC(=O)N[C@H](C(=O)N1CCC[C@H]1C(=O)N[C@@H](CC(=O)O)C(=O)N[C@H](C(=O)N[C@@H](CC(N)=O)C(=O)N1CCC[C@H]1C(=O)N[C@@H](C)C(=O)N[C@@H](Cc1c[nH]c2ccccc12)C(=O)N[C@@H](Cc1ccc(O)cc1)C(=O)N[C@@H](C)C(=O)N[C@@H](CO)C(=O)N[C@@H](CCCNC(=N)N)C(=O)N1CCC[C@H]1C(=O)N[C@@H](Cc1ccccc1)C(=O)N[C@@H](CCCNC(=N)N)C(=O)N1CCC[C@H]1C(=O)N[C@H](C(=O)NCC(=O)N[C@@H](CCCNC(=N)N)C(=O)N[C@@H](Cc1ccccc1)C(N)=O)C(C)C)[C@@H](C)CC)[C@@H](C)O
B4: analog no. 46 (peptide)
peptide: [Nle]ETRTPDINPAWYTGRGIRPVGRF-NH2
modifications: N-terminus assumed
SMILES: CCCC[C@H](N)C(=O)N[C@@H](CCC(=O)O)C(=O)N[C@H](C(=O)N[C@@H](CCCNC(=N)N)C(=O)N[C@H](C(=O)N1CCC[C@H]1C(=O)N[C@@H](CC(=O)O)C(=O)N[C@H](C(=O)N[C@@H](CC(N)=O)C(=O)N1CCC[C@H]1C(=O)N[C@@H](C)C(=O)N[C@@H](Cc1c[nH]c2ccccc12)C(=O)N[C@@H](Cc1ccc(O)cc1)C(=O)N[C@H](C(=O)NCC(=O)N[C@@H](CCCNC(=N)N)C(=O)NCC(=O)N[C@H](C(=O)N[C@@H](CCCNC(=N)N)C(=O)N1CCC[C@H]1C(=O)N[C@H](C(=O)NCC(=O)N[C@@H](CCCNC(=N)N)C(=O)N[C@@H](Cc1ccccc1)C(N)=O)C(C)C)[C@@H](C)CC)[C@@H](C)O)[C@@H](C)CC)[C@@H](C)O)[C@@H](C)O
notes: shortened PrRP31 analog
B5: analog no. 47 (peptide)
peptide: Myristoyl-[Nle]ETRTPDINPAWYTGRGIRPVGRF-NH2
SMILES: CCCCCCCCCCCCCC(=O)N[C@@H](CCCC)C(=O)N[C@@H](CCC(=O)O)C(=O)N[C@H](C(=O)N[C@@H](CCCNC(=N)N)C(=O)N[C@H](C(=O)N1CCC[C@H]1C(=O)N[C@@H](CC(=O)O)C(=O)N[C@H](C(=O)N[C@@H](CC(N)=O)C(=O)N1CCC[C@H]1C(=O)N[C@@H](C)C(=O)N[C@@H](Cc1c[nH]c2ccccc12)C(=O)N[C@@H](Cc1ccc(O)cc1)C(=O)N[C@H](C(=O)NCC(=O)N[C@@H](CCCNC(=N)N)C(=O)NCC(=O)N[C@H](C(=O)N[C@@H](CCCNC(=N)N)C(=O)N1CCC[C@H]1C(=O)N[C@H](C(=O)NCC(=O)N[C@@H](CCCNC(=N)N)C(=O)N[C@@H](Cc1ccccc1)C(N)=O)C(C)C)[C@@H](C)CC)[C@@H](C)O)[C@@H](C)CC)[C@@H](C)O)[C@@H](C)O
notes: lipidated shortened PrRP31 analog
B6: analog no. 48 (peptide)
peptide: QHSMETRTPDINPAWYTGRGIRPVGRF-NH2
notes: shortened PrRP31 analog
B7: analog no. 49 (peptide)
peptide: Myristoyl-QHSMETRTPDINPAWYTGRGIRPVGRF-NH2
SMILES: CCCCCCCCCCCCCC(=O)N[C@@H](CCC(N)=O)C(=O)N[C@@H](Cc1c[nH]cn1)C(=O)N[C@@H](CO)C(=O)N[C@@H](CCSC)C(=O)N[C@@H](CCC(=O)O)C(=O)N[C@H](C(=O)N[C@@H](CCCNC(=N)N)C(=O)N[C@H](C(=O)N1CCC[C@H]1C(=O)N[C@@H](CC(=O)O)C(=O)N[C@H](C(=O)N[C@@H](CC(N)=O)C(=O)N1CCC[C@H]1C(=O)N[C@@H](C)C(=O)N[C@@H](Cc1c[nH]c2ccccc12)C(=O)N[C@@H](Cc1ccc(O)cc1)C(=O)N[C@H](C(=O)NCC(=O)N[C@@H](CCCNC(=N)N)C(=O)NCC(=O)N[C@H](C(=O)N[C@@H](CCCNC(=N)N)C(=O)N1CCC[C@H]1C(=O)N[C@H](C(=O)NCC(=O)N[C@@H](CCCNC(=N)N)C(=O)N[C@@H](Cc1ccccc1)C(N)=O)C(C)C)[C@@H](C)CC)[C@@H](C)O)[C@@H](C)CC)[C@@H](C)O)[C@@H](C)O
notes: as for B5
B8: analog no. 52 (peptide)
peptide: Octanoyl-TPDINPAWYASRGIRPVGRF-NH2
SMILES: CCCCCCCC(=O)N[C@H](C(=O)N1CCC[C@H]1C(=O)N[C@@H](CC(=O)O)C(=O)N[C@H](C(=O)N[C@@H](CC(N)=O)C(=O)N1CCC[C@H]1C(=O)N[C@@H](C)C(=O)N[C@@H](Cc1c[nH]c2ccccc12)C(=O)N[C@@H](Cc1ccc(O)cc1)C(=O)N[C@@H](C)C(=O)N[C@@H](CO)C(=O)N[C@@H](CCCNC(=N)N)C(=O)NCC(=O)N[C@H](C(=O)N[C@@H](CCCNC(=N)N)C(=O)N1CCC[C@H]1C(=O)N[C@H](C(=O)NCC(=O)N[C@@H](CCCNC(=N)N)C(=O)N[C@@H](Cc1ccccc1)C(N)=O)C(C)C)[C@@H](C)CC)[C@@H](C)CC)[C@@H](C)O
B9: analog no. 53 (peptide)
peptide: Decanoyl-TPDINPAWYASRGIRPVGRF-NH2
SMILES: CCCCCCCCCC(=O)N[C@H](C(=O)N1CCC[C@H]1C(=O)N[C@@H](CC(=O)O)C(=O)N[C@H](C(=O)N[C@@H](CC(N)=O)C(=O)N1CCC[C@H]1C(=O)N[C@@H](C)C(=O)N[C@@H](Cc1c[nH]c2ccccc12)C(=O)N[C@@H](Cc1ccc(O)cc1)C(=O)N[C@@H](C)C(=O)N[C@@H](CO)C(=O)N[C@@H](CCCNC(=N)N)C(=O)NCC(=O)N[C@H](C(=O)N[C@@H](CCCNC(=N)N)C(=O)N1CCC[C@H]1C(=O)N[C@H](C(=O)NCC(=O)N[C@@H](CCCNC(=N)N)C(=O)N[C@@H](Cc1ccccc1)C(N)=O)C(C)C)[C@@H](C)CC)[C@@H](C)CC)[C@@H](C)O
B10: analog no. 54 (peptide)
peptide: Lauroyl-TPDINPAWYASRGIRPVGRF-NH2
SMILES: CCCCCCCCCCCC(=O)N[C@H](C(=O)N1CCC[C@H]1C(=O)N[C@@H](CC(=O)O)C(=O)N[C@H](C(=O)N[C@@H](CC(N)=O)C(=O)N1CCC[C@H]1C(=O)N[C@@H](C)C(=O)N[C@@H](Cc1c[nH]c2ccccc12)C(=O)N[C@@H](Cc1ccc(O)cc1)C(=O)N[C@@H](C)C(=O)N[C@@H](CO)C(=O)N[C@@H](CCCNC(=N)N)C(=O)NCC(=O)N[C@H](C(=O)N[C@@H](CCCNC(=N)N)C(=O)N1CCC[C@H]1C(=O)N[C@H](C(=O)NCC(=O)N[C@@H](CCCNC(=N)N)C(=O)N[C@@H](Cc1ccccc1)C(N)=O)C(C)C)[C@@H](C)CC)[C@@H](C)CC)[C@@H](C)O
B11: analog no. 42 (peptide)
peptide: TPDINPAWYTGRGARPFGRF-NH2
B12: analog no. 43 (peptide)
peptide: Myristoyl-TPDINPAWYTGRGARPFGRF-NH2
SMILES: CCCCCCCCCCCCCC(=O)N[C@H](C(=O)N1CCC[C@H]1C(=O)N[C@@H](CC(=O)O)C(=O)N[C@H](C(=O)N[C@@H](CC(N)=O)C(=O)N1CCC[C@H]1C(=O)N[C@@H](C)C(=O)N[C@@H](Cc1c[nH]c2ccccc12)C(=O)N[C@@H](Cc1ccc(O)cc1)C(=O)N[C@H](C(=O)NCC(=O)N[C@@H](CCCNC(=N)N)C(=O)NCC(=O)N[C@@H](C)C(=O)N[C@@H](CCCNC(=N)N)C(=O)N1CCC[C@H]1C(=O)N[C@@H](Cc1ccccc1)C(=O)NCC(=O)N[C@@H](CCCNC(=N)N)C(=O)N[C@@H](Cc1ccccc1)C(N)=O)[C@@H](C)O)[C@@H](C)CC)[C@@H](C)O

target: T1, human PrRP receptor, GPR10, transfected …; assay: competition with 125I-human PrRP31 on CHO cells with transfected human GPR10
Procedure: CHO cells with transfected human PrRP receptor, GPR10 (Perkin Elmer, USA) were grown on 24-well plates coated with polyethyleneimine. The cells were grown to the optimal density of 40-80 thousand cells per well.
(§1) Plates were incubated for 60 minutes at room temperature. After incubation, the cells were solubilized in 0.1 mol/l solution of NaOH and the radioactivity bound to the cells was counted using a γ-counter. The experiments were performed in duplicate and repeated at least three times.

Binder	Ki
B1	8.72 nM
B2	1.73 nM
B3	0.58 nM
B4	3.44 nM
B5	5.48 nM
B6	5.92 nM
B7	6.93 nM
B8	3.02 nM
B9	2.41 nM
B10	2.41 nM
B11	583 nM
B12	8.47 nM

target: T2, rat PrRP receptor in RC-4B/C cells; assay: competition with 125I-rat PrRP31 on RC-4B/C cells
Procedure: The rat pituitary cell line RC-4B/C (ATCC, Manassas, USA) was grown on 24-well plates which had their bottom coated with polyethyleneimine. The cells were grown to the optimal density of 300-450 thousand per well.
as §1
For evaluation of competitive binding experiments, the program Graph Pad Prism Software (San Diego, Calif., USA) was used. A method of nonlinear regression assuming one-site binding was used.

Binder	Ki
B1	49.4 nM
B2	2.14 nM
B3	0.84 nM
B4	2.94 nM
B5	0.45 nM
B6	2.61 nM
B7	0.37 nM
B11	655 nM
B12	7.21 nM
